{"source": "paper PMC2650427", "about": "(Bioconjugate chemistry, 2008)", "data": [{"assay": "Determination of q by luminescence lifetime measurements", "type": "physicochemical", "details": "emission 544 nm, excitation 229 nm, 25 scans averaged, monoexponential fit", "units": {"kD2O (luminescence decay rate in D2O)": "ms^−1", "kH2O (luminescence decay rate in H2O)": "ms^−1"}, "values": [{"substance": "Tb(III)-DOTA-Arg8 [compound 10]", "kD2O (luminescence decay rate in D2O)": 0.315, "kH2O (luminescence decay rate in H2O)": 0.566}, {"substance": "Tb(III)-DOTA-SS-Arg8 [compound 12]", "kD2O (luminescence decay rate in D2O)": 0.397, "kH2O (luminescence decay rate in H2O)": 0.644}, {"substance": "Tb(III)-DTPA-Arg8 [compound 11]", "kD2O (luminescence decay rate in D2O)": 0.331, "kH2O (luminescence decay rate in H2O)": 0.635}, {"substance": "Tb(III)-DTPA-SS-Arg8 [compound 13]", "kD2O (luminescence decay rate in D2O)": 0.390, "kH2O (luminescence decay rate in H2O)": 0.671}]}]}
